# Test results taken from patent US20210032365A1 (Chugai, published 2021).
# Where a chain is given by its changes, count along the chain named.
# T1: human C1s (human, UniProt P09871 16-688)
# T1 construct: Analyte in the Biacore assays; also called hC1s; serum-derived human C1s (CompTech)
# T1 sequence: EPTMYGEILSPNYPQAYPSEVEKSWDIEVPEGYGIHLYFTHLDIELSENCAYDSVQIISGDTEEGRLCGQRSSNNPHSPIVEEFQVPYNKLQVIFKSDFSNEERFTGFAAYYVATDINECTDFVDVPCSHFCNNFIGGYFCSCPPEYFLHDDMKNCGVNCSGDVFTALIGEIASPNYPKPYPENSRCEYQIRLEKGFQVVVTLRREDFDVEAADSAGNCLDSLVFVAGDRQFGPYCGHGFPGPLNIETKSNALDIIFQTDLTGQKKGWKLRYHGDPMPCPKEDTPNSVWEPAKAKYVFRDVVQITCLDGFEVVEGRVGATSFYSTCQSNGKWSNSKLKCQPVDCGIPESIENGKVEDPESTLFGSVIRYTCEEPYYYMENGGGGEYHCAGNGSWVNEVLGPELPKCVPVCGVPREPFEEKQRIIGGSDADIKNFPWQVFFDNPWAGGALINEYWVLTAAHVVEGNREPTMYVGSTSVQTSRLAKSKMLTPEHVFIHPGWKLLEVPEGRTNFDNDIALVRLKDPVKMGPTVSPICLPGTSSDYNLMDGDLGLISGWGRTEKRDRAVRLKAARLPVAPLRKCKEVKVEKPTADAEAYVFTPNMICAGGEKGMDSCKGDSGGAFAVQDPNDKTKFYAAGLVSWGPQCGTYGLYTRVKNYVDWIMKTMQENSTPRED
# T2: Serum-derived human C1s (human, UniProt P09871 16-688)
# T2 construct: The analyte was C1s purified from serum; also called hC1s
# T2 sequence: T1 sequence
# B1: IPN009VH2/IPN009VK3-SG136 (antibody, human IgG1, kappa)
# heavy: EVMLVESGGGLVKPGGSLRLSCAASGFTFSNYAMSWVRQAPGKGLEWVATISSGGSHTYYLDSVKGRFTISRDNSKDTLYLQMNSLRAEDTALYYCARLFTGYAMDYWGQGTLVTVSSASTKGPSVFPLAPSSKSTSGGTAALGCLVKDYFPEPVTVSWNSGALTSGVHTFPAVLQSSGLYSLSSVVTVPSSSLGTQTYICNVNHKPSNTKVDKKVEPKSCDKTHTCPPCPAPELRRGPSVFLFPPKPKDTLMISRTPEVTCVVVDVSHEDPEVKFNWYVDGVEVHNAKTKPREEQYNSTYRVVSVLTVLHQDWLNGKEYKCKVSNKGLPSSIEKTISKAKGQPREPQVYTLPPSREEMTKNQVSLTCLVKGFYPSDIAVEWESNGQPENNYKTTPPVLDSDGSFFLYSKLTVDKSRWQQGNVFSCSVMHEALHNHYTQKSLSLSP
# light: QIVLTQSPATLSLSPGERATLSCTASSSVSSSYLHWYQQKPGKAPKLWIYSTSNLASGVPSRFSGSGSGTDYTLTISSLQPEDFATYYCHQYYRLPPITFGQGTKLEIKRTVAAPSVFIFPPSDEQLKSGTASVVCLLNNFYPREAKVQWKVDNALQSGNSQESVTEQDSKDCTYSLSSTLTLSKADYEKHKVYACEVTHQGLSSPVTKSFNRGEC
# notes: also called IPN009VH2/IPN009VK3 (lot PPU2040)
# B2: IPN92H0307/IPN93L0058-SG136 (antibody, human IgG1, kappa)
# heavy: B1 heavy with T28E, S30E, Y60E, K65D, G102K, Y103H
# light: B1 light with S28E, P96H
# notes: also called IPN92H0307/IPN93L0058 (lot PPU2051)
# B3: IPN009VH2/IPN93L0021-SG136 (antibody, human IgG1, kappa, name in Kabat numbering)
# heavy: B1 heavy
# light: B1 light with Y93H
# notes: also called IPN009VH2/IPN93L0021 (lot PPU2042)
# B4: IPN92H0033/IPN93L0024-SG136 (antibody, human IgG1, kappa)
# heavy: B1 heavy with Y103H
# light: B1 light with P96H
# notes: also called IPN92H0033/IPN93L0024 (lot PPU2046)
# B5: IPN92H0288/IPN93L0211-SG136 (antibody, human IgG1, kappa)
# heavy: B1 heavy with Y60E, K65D, G102K, Y103H
# light: B1 light with S28E, S31E, P96H
# notes: also called IPN92H0288/IPN93L0211 (lot PPU2049)
# B6: IPN92H0288/IPN93L0058-SG136 (antibody, human IgG1, kappa)
# heavy: B1 heavy with Y60E, K65D, G102K, Y103H
# light: B1 light with S28E, P96H
# notes: also called IPN92H0288/IPN93L0058 (lot PPU2050)
# B7: IPN92H0033/IPN009VK3-SG136 (antibody, human IgG1, kappa)
# heavy: B1 heavy with Y103H
# light: B1 light
# notes: also called IPN92H0033/IPN009VK3 (lot PPU2041)
# B8: IPN009VH2/IPN93L0024-SG136 (antibody, human IgG1, kappa)
# heavy: B1 heavy
# light: B1 light with P96H
# notes: also called IPN009VH2/IPN93L0024 (lot PPU2044)
# B9: IPN92H0307/IPN93L0058-SG136 (antibody, human IgG1, kappa)
# heavy: B1 heavy with T28E, S30E, Y60E, K65D, G102K, Y103H
# light: B1 light with S28E, P96H
# Target: T1, human C1s
# Assay: SPR; KD at pH 5.8 over KD at pH 7.4, both 1.2 mM Ca
# Procedure: (§1) The binding affinity of all histidine-substituted variants at pH 7.4 and pH 5.8 were determined at 37 degrees C. using Biacore T200 instrument (GE Healthcare). Recombinant Protein A/G (Pierce) was immobilized onto all flow cells of a CM4 sensor chip using amine coupling kit (GE Healthcare). Antibodies and analytes were prepared in 7(+) buffer (20 mM ACES, 150 mM NaCl, 1.2 mM CaCl2, 0.05% Tween 20, 0.005% NaN3, pH 7.4) or 5(+) buffer (20 mM ACES, 150 mM NaCl, 1.2 mM CaCl2), 0.05% Tween 20, 0.005% NaN3, pH 5.8). Each antibody was captured onto the sensor surface by protein A/G. Antibody capture levels were aimed at 200 resonance unit (RU). […] Sensor surface was regenerated each cycle with 10 mM Glycine-HCl pH 1.5. […] An additional dissociation phase at pH 5.8 was integrated immediately after the dissociation phase at pH 7.4. This dissociation rate in 5(+) buffer was determined by processing and fitting data using Scrubber 2.0 (BioLogic Software) curve fitting software. […]
row,KD (5.8+)/KD (7.4+),Binder
1,0.4,B1
2,28.4,B2
3,1.5,B3
4,4.7,B4
5,74.9,B5
6,65.6,B6
7,0.9,B7
8,1.3,B8

# Target: T2, Serum-derived human C1s
# Assay: SPR Biacore T200, 37 C, ratio of KD pH 5.8 / pH 7.4, 1.2 mM CaCl2
# Procedure: as §1
row,KD (5.8+)/KD (7.4+),Binder
1,28.4,B9

# Target: T2, Serum-derived human C1s
# Assay: SPR Biacore T200, 37 C, antibody captured on protein A/G, pH 5.8, 1.2 mM CaCl2
# Procedure: (§2) The binding affinity of all histidine-substituted variants at pH 7.4 and pH 5.8 were determined at 37 degrees C. using Biacore T200 instrument (GE Healthcare). Recombinant Protein A/G (Pierce) was immobilized onto all flow cells of a CM4 sensor chip using amine coupling kit (GE Healthcare). Antibodies and analytes were prepared in 7(+) buffer (20 mM ACES, 150 mM NaCl, 1.2 mM CaCl2, 0.05% Tween 20, 0.005% NaN3, pH 7.4) or 5(+) buffer (20 mM ACES, 150 mM NaCl, 1.2 mM CaCl2), 0.05% Tween 20, 0.005% NaN3, pH 5.8). Each antibody was captured onto the sensor surface by protein A/G. Antibody capture levels were aimed at 200 resonance unit (RU). […] Sensor surface was regenerated each cycle with 10 mM Glycine-HCl pH 1.5. […] An additional dissociation phase at pH 5.8 was integrated immediately after the dissociation phase at pH 7.4. This dissociation rate in 5(+) buffer was determined by processing and fitting data using Scrubber 2.0 (BioLogic Software) curve fitting software.
koff [s⁻¹],kon [M⁻¹ s⁻¹],Binder
0.0121,318000,B9

# Target: T2, Serum-derived human C1s
# Assay: SPR Biacore T200, 37 C, antibody captured on protein A/G, pH 7.4, 1.2 mM CaCl2
# Procedure: as §2
row,kon [M⁻¹ s⁻¹],Binder
1,391000,B9

# Target: T2, Serum-derived human C1s
# Assay: SPR Biacore T200, 37 C, ratio of dissociation rates pH 5.8 / pH 7.4, 1.2 mM CaCl2
# Procedure: as §2
row,koff (5.8+ of 775+)/koff (7.4+),Binder
1,28.8,B9

# Target: T1, human C1s
# Assay: SPR (Biacore T200, 37C), Ab captured on protein A/G, serum C1s 12.5 and 50 nM; pH 7.4, 1.2 mM Ca
# Procedure: as §2
row,koff [s⁻¹],Binder
1,0.000411,B1
2,0.000523,B2
3,0.00058,B3
4,0.000571,B4
5,0.00052,B5
6,0.000408,B6
7,0.00038,B7
8,0.000612,B8

# Target: T1, human C1s
# Assay: SPR; koff (5.8+ of 775+): extra dissociation phase at pH 5.8 (1.2 mM Ca) right after the pH 7.4 dissociation, Scrubber fit
# Procedure: as §2
row,koff [s⁻¹],Binder
1,8.86e-05,B1
2,0.0151,B2
3,0.0011,B3
4,0.0029,B4
5,0.0282,B5
6,0.0158,B6
7,0.000265,B7
8,0.000741,B8
